The test system of data set [1] is 4T1 murine breast tumour. Put plainly: Dosing regimen investigation: coated nanoparticles versus free gemcitabine, tumour growth. Format: in vivo, mice.
Data set [2] concerns 4T1-luc2 murine breast cancer cells. Put plainly: Biodistribution imaging of fluorescently labelled nanoparticles in 4T1-luc2 tumour bearing mice. Format: in vivo. The method, then: The near-infrared (NIR) lipophilic fluorescent dye DiR (ThermoFisher) was incorporated into the lipid bilayer of naked nanoparticles, nanoparticles coated with HEL4 (isotype) and nanoparticles coated with variable domains for binding to anti-P2X7R (P2X7-binding domain-coated nanoparticles, or “BIL03s-coated”). Female Balb/c mice were inoculated orthotopically (4th mammary fat pad) with 4T1-luc2 murine breast cancer cells. A 50 μL dose of nanoparticles was injected intravenously at study day 0 and near-infrared (NIR) imaging was performed at 6, 12, 24, 48 and 96 […]. At termination, excised liver, spleen and tumour NIR imaging was performed and bioluminescence imaging was performed on tumour tissues.

In data set [3] the test system is 4T1 murine breast tumour. Put plainly: Efficacy of gemcitabine liposome nanoparticles in the 4T1 murine breast tumour model. Format: in vivo, mice. Particulars: 0.2 mg gemcitabine, intravenously 3 times a week; versus HEL4-coated nanoparticles containing gemcitabine; P=0.0456. As to the method:
This study aimed to determine the efficacy of P2X7-binding domain-coated nanoparticles (i.e., “BIL03s-coated”) and HEL4-coated nanoparticles to deliver the cytotoxic agent gemcitabine to tumours in the 4T1 murine breast tumour model.
Nanoparticles were administered intravenously, 3 times a week. Nanoparticles contained either 0.2 mg gemcitabine or PBS buffer (control).
Tumour volume was measured over the study period (see FIG. 10). Mice were terminated when estimated tumour volume exceeded 1000 mm^3.

B1: P2X7-binding domain-coated nanoparticles containing gemcitabine: Liposome of DOPC, oleyl-gemcitabine carbamate conjugate and Maleimido-Succinyl-PEG4000-Oleate, conjugated to an anti-P2X7R single … (conjugate)
VH: EVQLLESGGGLVQPGGSLRLSCAASGFTFRNHDMGWVRQAPGKGLEWVSAISGSGGSTYYANSVKGRFTISRDNSKNTLYLQMNSLRAEDTAVYYCAEPKPMDTEFDYRSPGTLVTVSS
For the molecule B1, the “efficacy for inhibiting tumour growth” value in the data set on 4T1 murine breast tumour [1] (equivalent to 0.3 mg gemcitabine, intravenously twice per week (FIG. 11), versus 0.3 mg free gemcitabine) is “comparable”. Also, in the data set with 4T1 murine breast tumour [1] (general statement), the “release of cytotoxic agent” value is “sustained release”. Moreover, the toxicity entry in the data set on 4T1 murine breast tumour [1] (general statement, versus existing cancer treatments) was “lower toxicity”. Besides, the “accumulation in the excised tumour” value in data set [2] (ex vivo bioluminescence imaging at 96 hr, FIG. 9, versus naked nanoparticles) is “higher accumulation in the excised tumour”. Moreover, in data set [2] (whole animal NIR imaging and ex vivo bioluminescence, 50 μL intravenous on day 0, versus naked or HEL4-coated control nanoparticles), the accumulation in tumours entry is listed as “greater accumulation in tumours”. Also, the “retention in the tumour” value in data set [2] (whole animal NIR imaging, FIG. 7, versus non antibody-conjugated particles) is recorded as “retained in the tumour much longer”. Besides, in the data set on 4T1 murine breast tumour [3], the survival result is “prolonged survival” and the “tumour suppression (tumour volume)” value is on record as “greater tumour suppression”.

The values above are taken from patent publication US12097265B2, “Cytotoxic particles for targeting P2X7 receptor” (BIOSCEPTRE (AUST) PTY LTD, priority 2016, dated 2024).
